In patent US20140234312A1 (Genentech, published 2014):

Key:
[1] = target: T1, hNrp2 (a1a2b1b2)-Fc fusion protein (human, UniProt O60462 23-595, limits assumed); assay: blocking ELISA: plate coated with human Nrp2 ECD (5 ug/ml), antibody pre-incubated, then biotinylated human VEGFC (1 nM), streptavidin-HRP; blocked ligand VEGFC
T1 construct: domain: a1a2b1b2; Expressed in CHO cells; The SPR text says only 'human Nrp2 (a1a2b1b2)', so it is not certain that the Fc fusion was the analyte there; also called hNrp2 ECD; human Nrp2 ECD; not shown: Fc part of the fusion
T1 sequence (looked up): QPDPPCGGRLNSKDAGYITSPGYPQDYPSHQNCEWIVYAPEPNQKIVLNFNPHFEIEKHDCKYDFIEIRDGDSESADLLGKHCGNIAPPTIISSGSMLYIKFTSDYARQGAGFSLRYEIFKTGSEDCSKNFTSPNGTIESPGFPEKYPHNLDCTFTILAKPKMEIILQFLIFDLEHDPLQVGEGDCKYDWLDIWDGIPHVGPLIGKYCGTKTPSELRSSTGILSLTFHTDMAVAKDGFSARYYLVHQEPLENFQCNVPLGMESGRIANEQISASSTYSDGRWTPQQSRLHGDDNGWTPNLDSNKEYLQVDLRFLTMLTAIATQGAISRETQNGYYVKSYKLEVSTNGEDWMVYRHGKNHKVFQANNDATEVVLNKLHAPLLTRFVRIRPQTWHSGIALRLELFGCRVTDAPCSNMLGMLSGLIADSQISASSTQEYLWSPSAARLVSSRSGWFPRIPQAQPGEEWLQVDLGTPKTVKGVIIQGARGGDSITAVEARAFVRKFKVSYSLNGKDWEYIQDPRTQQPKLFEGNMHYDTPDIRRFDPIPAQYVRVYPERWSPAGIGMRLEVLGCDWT
Protocol: FIG. 1. Characterization of Anti-Nrp2^B mAb. (A) Schematic representation of Sema and VEGF binding regions on Nrp2 relative to Anti-Nrp2^B epitope regions. […] (C) Blocking of VEGFC binding to Nrp2 by Anti-Nrp2^B. Increasing amounts of mAb was pre-incubated with plates coated with human Nrp2 ECD (5 μg/ml) for 1-2 hrs, followed by adding pre-titrated biotinylated human VEGFC (1 nM) for 15 min. The percentage of bound VEGFC was detected by streptavidin-HRP conjugates. (D) Blocking of VEGF₁₆₅ binding to Nrp2 by Anti-Nrp2^B. (E) Blocking of Sema3F binding to LECs. LEC were incubated with conditioned media containing Sema3F fused to alkaline phosphatase (AP) (REF), in the presence or absence of Anti-Nrp2^B. AP activity derived form bound Sema3F-AP was detected colorimetrically with same development times. […] Nrp2 ECD was used as a positive control for blocking binding (right panel). Scale bar
(§1) To evaluate blocking Nrp2 from binding VEGF, three-fold serial dilutions of anti-Nrp2^B IgGs were first incubated with 96-well Maxisorp plate coated NRP2-Fc (5 μg/ml) in PBST buffer for 2 hr, following by adding biotinylated VEGF₁₆₅ or VEGFC (full length) for 15 minutes. The amount of biotinylated VEGF binding to Nrp2 was detected by streptavidin-HRP conjugates.

[2] = target: T1, hNrp2 (a1a2b1b2)-Fc fusion protein; assay: SPR (BIAcore-3000), human IgG1 captured on anti-human IgG CM5 chip, human Nrp2 (a1a2b1b2) injected 0.5-250 nM, 25 C, 1:1 Langmuir; human Nrp2
Protocol: (§2) To determine binding affinities of anti-Nrp2^B IgG1 antibodies, surface plasmon resonance (SRP) measurement with a BIAcore™-3000 instrument was used. First of all, anti-Nrp2^B human IgGs were captured by CM5 biosensor chips coated rabbit anti-human IgG to achieve approximately 200 response units (RU). For kinetics measurements, two-fold serial dilutions of mouse or human Nrp2 (a1a2b1b2) (0.5 nM to 250 nM) were injected separately in PBT buffer (PBS with 0.05% (v/v) Tween 20) at 25° C. with a flow rate of 30 μl/min. Association rates (kₒₙ) and dissociation rates (koff) were calculated using a simple one-to-one Langmuir binding model (BIAcore Evaluation Software version 3.2). The equilibrium dissociation constant (KD) was calculated as the ratio koff/kₒₙ.

[3] = target: T2, mNrp2 (a1a2b1b2)-His (mouse, UniProt O35375 23-595, limits assumed); assay: SPR (BIAcore-3000), human IgG1 captured on anti-human IgG CM5 chip, mouse Nrp2 (a1a2b1b2) injected 0.5-250 nM, 25 C, 1:1 Langmuir; murine Nrp2
T2 construct: domain: a1a2b1b2; Expressed in CHO cells; also called mouse Nrp2 (a1a2b1b2); murine Nrp2; not shown: His tag
T2 sequence (looked up): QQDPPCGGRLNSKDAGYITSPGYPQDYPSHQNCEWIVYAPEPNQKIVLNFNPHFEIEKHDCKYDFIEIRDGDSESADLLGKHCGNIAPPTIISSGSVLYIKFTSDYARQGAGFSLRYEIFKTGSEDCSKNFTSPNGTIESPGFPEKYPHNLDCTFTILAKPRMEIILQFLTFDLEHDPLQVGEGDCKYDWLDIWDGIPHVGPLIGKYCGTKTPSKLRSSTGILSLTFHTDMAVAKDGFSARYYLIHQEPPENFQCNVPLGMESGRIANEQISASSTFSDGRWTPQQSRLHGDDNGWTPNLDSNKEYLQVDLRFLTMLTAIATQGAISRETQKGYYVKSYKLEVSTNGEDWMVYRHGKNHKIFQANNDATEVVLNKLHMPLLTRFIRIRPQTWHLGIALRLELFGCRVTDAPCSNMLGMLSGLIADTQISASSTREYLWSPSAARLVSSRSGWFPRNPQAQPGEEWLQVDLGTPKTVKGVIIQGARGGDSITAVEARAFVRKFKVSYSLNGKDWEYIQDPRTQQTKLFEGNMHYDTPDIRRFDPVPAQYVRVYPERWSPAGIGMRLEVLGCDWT
Protocol: as §2

[4] = target: T3, hNrp2 (b1b2) (human, UniProt O60462 275-595, limits assumed); assay: ELISA on antigen-coated plate, Anti-Nrp2^B IgG titrated, anti-human HRP detection, OD450
T3 construct: domain: b1b2; Expressed in insect cells; also called B1-B2 domains of hNrp2; b1-b2 domains of human Nrp2
T3 sequence (looked up): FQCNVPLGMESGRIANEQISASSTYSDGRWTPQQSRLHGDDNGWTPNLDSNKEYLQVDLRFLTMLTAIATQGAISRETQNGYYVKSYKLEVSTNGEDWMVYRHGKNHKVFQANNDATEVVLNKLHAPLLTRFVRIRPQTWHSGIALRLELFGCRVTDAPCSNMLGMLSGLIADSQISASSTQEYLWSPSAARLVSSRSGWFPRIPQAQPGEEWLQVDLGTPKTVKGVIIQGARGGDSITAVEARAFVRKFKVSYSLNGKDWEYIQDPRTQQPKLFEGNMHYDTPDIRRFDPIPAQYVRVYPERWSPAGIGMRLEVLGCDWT
Protocol: (§3) For ELISA-based binding specificity tests, three-fold serial dilutions of Anti-Nrp2^B IgGs (0.002 nM to 500 nM) in PBST buffer (PBT buffer with 0.5% (w/v) BSA) were incubated with 1 μg/ml antigen-coated 96-well Maxisorp plates for at least 1 hr, and the plates were washed with PBT buffer. Bound antibodies were detected with anti-human antibody HRP conjugates diluted 1:2500 in PBST buffer, developed with TMB substrate for approximately 5 minutes, quenched with 1M H₃PO₄, and read spectrophotometrically at 450 nm.

[5] = target: T1, hNrp2 (a1a2b1b2)-Fc fusion protein; assay: as above
Protocol: as §3

[6] = target: T4, hNrp1 ECD (human, UniProt O14786 22-856); assay: as above
T4 construct: extracellular domain
T4 sequence (looked up): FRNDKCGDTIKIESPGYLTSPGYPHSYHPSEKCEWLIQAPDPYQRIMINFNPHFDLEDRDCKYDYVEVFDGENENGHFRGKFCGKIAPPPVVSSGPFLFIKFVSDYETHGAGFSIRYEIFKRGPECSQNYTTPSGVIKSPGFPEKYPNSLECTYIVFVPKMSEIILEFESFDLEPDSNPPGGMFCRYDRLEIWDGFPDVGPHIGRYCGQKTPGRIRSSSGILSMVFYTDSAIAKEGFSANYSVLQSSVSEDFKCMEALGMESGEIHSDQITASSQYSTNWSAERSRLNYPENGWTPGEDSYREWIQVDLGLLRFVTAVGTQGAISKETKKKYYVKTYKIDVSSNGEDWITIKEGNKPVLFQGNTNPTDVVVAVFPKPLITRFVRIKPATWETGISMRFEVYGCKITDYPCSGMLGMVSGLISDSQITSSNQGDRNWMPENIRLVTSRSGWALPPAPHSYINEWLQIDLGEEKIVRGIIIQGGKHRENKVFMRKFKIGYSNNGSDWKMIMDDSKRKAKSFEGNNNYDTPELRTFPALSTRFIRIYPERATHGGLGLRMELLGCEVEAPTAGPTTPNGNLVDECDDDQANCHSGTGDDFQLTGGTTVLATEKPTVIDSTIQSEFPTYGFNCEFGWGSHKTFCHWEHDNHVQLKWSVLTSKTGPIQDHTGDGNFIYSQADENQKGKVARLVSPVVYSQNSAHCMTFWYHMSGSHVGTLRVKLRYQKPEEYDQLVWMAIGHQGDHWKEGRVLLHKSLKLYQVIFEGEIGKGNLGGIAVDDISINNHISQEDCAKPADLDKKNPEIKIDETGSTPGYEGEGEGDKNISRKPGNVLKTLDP
Protocol: as §3

[7] = target: T5, A1-A2 domains of hNrp2 (human, UniProt O60462 23-270, limits assumed); assay: as above
T5 construct: domain: A1-A2; also called CUB (a1-a2) domains of human Nrp2
T5 sequence (looked up): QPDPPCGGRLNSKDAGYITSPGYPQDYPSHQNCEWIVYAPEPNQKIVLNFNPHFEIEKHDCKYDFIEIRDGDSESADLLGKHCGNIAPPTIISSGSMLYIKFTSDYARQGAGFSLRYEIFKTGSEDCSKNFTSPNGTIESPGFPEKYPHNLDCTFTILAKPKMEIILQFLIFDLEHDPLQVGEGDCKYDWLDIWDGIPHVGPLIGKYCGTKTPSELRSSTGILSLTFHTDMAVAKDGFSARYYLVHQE
Protocol: as §3

[8] = target: T1, hNrp2 (a1a2b1b2)-Fc fusion protein; assay: competition ELISA: antibody titrated on plate-coated NRP2-Fc (5 ug/ml), competitor biotinylated VEGF165, streptavidin-HRP; blocking of VEGF165 binding
Protocol: as §1

B1: anti-Nrp2^B antibody YW68.4.2.36 (antibody, V domains shown)
VH: EVQLVESGGGLVQPGGSLRLSCAASGFTITSSGIHWVRQAPGKGLEWVARITPYDGSTDYADSVKGRFTISADTSKNTAYLQMNSLRAEDTAVYYCARYRGRLLFDYWGQGTLVTVSS
VL: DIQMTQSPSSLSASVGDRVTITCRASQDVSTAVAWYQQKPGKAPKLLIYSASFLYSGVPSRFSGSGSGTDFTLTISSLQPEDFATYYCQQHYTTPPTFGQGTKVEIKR
notes: Phage-derived human synthetic antibody; Human IgG1 was used in SPR and ELISA; also called Anti-Nrp2^B mAb; anti-Nrp2^B IgG1
B1 was tested, and the “IC50 (read off the curve)” value [1] was roughly 0.1 nM, the Kd [2] was 5.3 nM and the Kd [3] was 4.9 nM. The “EC50 (read off the curve)” value [4] was roughly 0.3 nM, the “EC50 (read off the curve)” value [5] was roughly 0.2 nM and the binding result [6] was “no binding (tested: 500 nM)”. For the same binder, the binding result [7] was “no binding (tested: 500 nM)” and the IC50 [8] was 0.1 nM.
